Reference: patent publication US20220048967A1 (published 2022)
Numbered stars: 1 amine (or outer) side, 2 acyl side, 3 side chain; on linkers, the order of the positions; unused ones are H or OH. Square brackets hold non-standard residues; d marks the D form. Side chains are listed from the residue outwards. Ends that are not written are not given here. * marks the point of attachment. C20 diacid = O=C(O)CCCCCCCCCCCCCCCCCCC(=O)*; γGlu = O=C(O)[C@H](CCC(=O)[*:2])N[*:1]; AEEA = NCCOCCOCC(=O)O; Aib = CC(C)(N)C(=O)O

Assays:
[1] = molecular target: Pro-Link-tagged Human GLP-1R (human, UniProt P43220 24-463); assay: cell-based or functional assay
[2] = molecular target: human GLP-1 receptor (human, UniProt P43220 24-463); assay: cell-based or functional assay

B1: Example 289 (peptide)
peptide: YXEGTFTSDYSIXLDKKAQXEFIEYLIAGGPSSGAPPPS
modifications: Aib2, αMeL13, K17 conjugated to (2-[2-(2-Amino-ethoxy)-ethoxy]-acetyl)2-(γ-Glu)-CO-(CH2)18-CO2H, Aib20, C-terminal amide (NH2)
[1]
  hGLP1R B-Arrestin2 % Top: 51.3%
  hGLP1R B-Arrestin2 Rel EC50: 12.4 nM
[2]
  hGLP1R GTPgS % Top: 83.7%
  hGLP1R GTPgS Rel EC50: 0.404 nM

B2: Example 327 (peptide)
peptide: FXEGTFTSDYSIXLDKKAQXAFIEYLIEGGPSSGAPPPS
modifications: Aib2, αMeL13, K17 conjugated to (2-[2-(2-Amino-ethoxy)-ethoxy]-acetyl)2-(γ-Glu)-CO-(CH2)18-CO2H, Aib20, C-terminal amide (NH2)
[1]
  hGLP1R B-Arrestin2 % Top: 41.6%
  hGLP1R B-Arrestin2 Rel EC50: 3.79 nM
[2]
  hGLP1R GTPgS % Top: 75.6%
  hGLP1R GTPgS Rel EC50: 0.287 nM

B3: Example 288 (peptide)
peptide: Y[Aib]EGTFTSDYSILLDKK([AEEA-AEEA-γGlu-C20 diacid])AQ[Aib]AFIEYLIAGGPSSGAPPPS-NH2
modifications: N-terminus assumed
SMILES: CC[C@H](C)[C@H](NC(=O)[C@H](CC(C)C)NC(=O)[C@H](Cc1ccc(O)cc1)NC(=O)[C@H](CCC(=O)O)NC(=O)[C@@H](NC(=O)[C@H](Cc1ccccc1)NC(=O)[C@H](C)NC(=O)C(C)(C)NC(=O)[C@H](CCC(N)=O)NC(=O)[C@H](C)NC(=O)[C@H](CCCCNC(=O)COCCOCCNC(=O)COCCOCCNC(=O)CC[C@H](NC(=O)CCCCCCCCCCCCCCCCCCC(=O)O)C(=O)O)NC(=O)[C@H](CCCCN)NC(=O)[C@H](CC(=O)O)NC(=O)[C@H](CC(C)C)NC(=O)[C@H](CC(C)C)NC(=O)[C@@H](NC(=O)[C@H](CO)NC(=O)[C@H](Cc1ccc(O)cc1)NC(=O)[C@H](CC(=O)O)NC(=O)[C@H](CO)NC(=O)[C@@H](NC(=O)[C@H](Cc1ccccc1)NC(=O)[C@@H](NC(=O)CNC(=O)[C@H](CCC(=O)O)NC(=O)C(C)(C)NC(=O)[C@@H](N)Cc1ccc(O)cc1)[C@@H](C)O)[C@@H](C)O)[C@@H](C)CC)[C@@H](C)CC)C(=O)N[C@@H](C)C(=O)NCC(=O)NCC(=O)N1CCC[C@H]1C(=O)N[C@@H](CO)C(=O)N[C@@H](CO)C(=O)NCC(=O)N[C@@H](C)C(=O)N1CCC[C@H]1C(=O)N1CCC[C@H]1C(=O)N1CCC[C@H]1C(=O)N[C@@H](CO)C(N)=O
[1]
  hGLP1R B-Arrestin2 % Top: 21.3%
  hGLP1R B-Arrestin2 Rel EC50: 6.74 nM
[2]
  hGLP1R GTPgS % Top: 66.7%
  hGLP1R GTPgS Rel EC50: 0.666 nM

B4: Example 329 (peptide)
peptide: XXEGTXTSDYSILLDKKAQXAFIEYLIEGGPSSGAPPPS
modifications: D-Tyr1, Aib2, αMeF6, K17 conjugated to (2-[2-(2-Amino-ethoxy)-ethoxy]-acetyl)2-(γ-Glu)-CO-(CH2)18-CO2H, Aib20, C-terminal amide (NH2)
[1]
  hGLP1R B-Arrestin2 % Top: 63.4%
  hGLP1R B-Arrestin2 Rel EC50: 4.73 nM
[2]
  hGLP1R GTPgS % Top: 83.6%
  hGLP1R GTPgS Rel EC50: 0.343 nM

B5: Example 330 (peptide)
peptide: Y[Aib]EGTFTSDYSILLDEK([AEEA-AEEA-γGlu-C20 diacid])AQ[Aib]AFIEYLIAGGPSSGAPPPS-NH2
modifications: N-terminus assumed
SMILES: CC[C@H](C)[C@H](NC(=O)[C@H](CC(C)C)NC(=O)[C@H](Cc1ccc(O)cc1)NC(=O)[C@H](CCC(=O)O)NC(=O)[C@@H](NC(=O)[C@H](Cc1ccccc1)NC(=O)[C@H](C)NC(=O)C(C)(C)NC(=O)[C@H](CCC(N)=O)NC(=O)[C@H](C)NC(=O)[C@H](CCCCNC(=O)COCCOCCNC(=O)COCCOCCNC(=O)CC[C@H](NC(=O)CCCCCCCCCCCCCCCCCCC(=O)O)C(=O)O)NC(=O)[C@H](CCC(=O)O)NC(=O)[C@H](CC(=O)O)NC(=O)[C@H](CC(C)C)NC(=O)[C@H](CC(C)C)NC(=O)[C@@H](NC(=O)[C@H](CO)NC(=O)[C@H](Cc1ccc(O)cc1)NC(=O)[C@H](CC(=O)O)NC(=O)[C@H](CO)NC(=O)[C@@H](NC(=O)[C@H](Cc1ccccc1)NC(=O)[C@@H](NC(=O)CNC(=O)[C@H](CCC(=O)O)NC(=O)C(C)(C)NC(=O)[C@@H](N)Cc1ccc(O)cc1)[C@@H](C)O)[C@@H](C)O)[C@@H](C)CC)[C@@H](C)CC)C(=O)N[C@@H](C)C(=O)NCC(=O)NCC(=O)N1CCC[C@H]1C(=O)N[C@@H](CO)C(=O)N[C@@H](CO)C(=O)NCC(=O)N[C@@H](C)C(=O)N1CCC[C@H]1C(=O)N1CCC[C@H]1C(=O)N1CCC[C@H]1C(=O)N[C@@H](CO)C(N)=O
[1]
  hGLP1R B-Arrestin2 Rel EC50: > 10900 nM
[2]
  hGLP1R GTPgS % Top: 47.8%
  hGLP1R GTPgS Rel EC50: 1.05 nM
